Experimental data published in the supplement of paper PMC10724198.
± gives the standard deviation of the averaged measurements.

System: Saccharomyces cerevisiae
Assay: protein stability index of tFT-peptide fusion (C-terminal peptide) (PSI (0-1 scale)); higher = more stable (slower turnover)
Details: genetic background: wild type; temperature: 30 C
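Note: PSI is a weighted mean of sequencing reads over stability bins, variants kept only with over 10 reads, mCherry proximal and sfGFP distal, peptide attached via GGGS linker.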

VPALLPLLPSPP and VPFPHTHPLLTP are within error of each other in protein stability index: 0.712 ± 0.03 for the first, 0.757 ± 0.054 for the second.

First: VPITLRFSFLTP
Second: VPPCESLSALSS
The protein stability index of the first is lower: 0.598 ± 0.073 for the first, 0.707 ± 0.034 for the second.

First: VPPPLPSPPSHP
Second: VPPPLTSPSWHF
The protein stability index of the first is higher: 0.761 ± 0.038 for the first, 0.6825 ± 0.0036 for the second.

VPRLARTRPKHA and VPRPLPPSPLLV are within error of each other in protein stability index: 0.641 ± 0.042 for the first, 0.644 ± 0.13 for the second.

VPRPPGPPPGPV and VPRTGSLHARLP are within error of each other in protein stability index: 0.667 ± 0.053 for the first, 0.715 ± 0.03 for the second.

First: VPVISYVQTSIA
Second: VPVMVVCVPSKE
The protein stability index of the first is lower: 0.558 ± 0.033 for the first, 0.715 ± 0.035 for the second.

Going from VQDALPLLVPPF to VQGEGVVAISMT, the protein stability index falls from 0.762 ± 0.021 to 0.712 ± 0.021.

First: VQGGSSCLWSVR
Second: VQGIKFRNSVEV
The protein stability index of the first is higher: 0.72 ± 0.01 for the first, 0.665 ± 0.044 for the second.

VQLCQGWIGSES and VQRKVCTFRRSD are within error of each other in protein stability index: 0.676 ± 0.0089 for the first, 0.665 ± 0.14 for the second.

First: VQSSLFGLGVQC
Second: VQTLYSQLPALR
The protein stability index of the first is lower: 0.566 ± 0.033 for the first, 0.78 ± 0.069 for the second.

VQWSRFRVGMAE and VRAGLAGGPGRV are within error of each other in protein stability index: 0.848 ± 0.19 for the first, 0.684 ± 0.024 for the second.

Compared with VRAWIGDVENGV, VRCGCDFRVSRC is higher in protein stability index: 0.574 ± 0.058 for the first, 0.717 ± 0.062 for the second.

VRCLGAVEDCLS and VRDGGLCYLAQL are within error of each other in protein stability index: 0.657 ± 0.013 for the first, 0.667 ± 0.019 for the second.

VREQRLPLARRV and VRFGWCLGSGDG are within error of each other in protein stability index: 0.706 ± 0.07 for the first, 0.702 ± 0.068 for the second.

Compared with VRFLWWGLFWGW, VRFPVEPYEAMF is higher in protein stability index: 0.499 ± 0.016 for the first, 0.71 ± 0.0097 for the second.

Compared with VRFSVKPAFVRV, VRGDRRHRGVWG is higher in protein stability index: 0.577 ± 0.032 for the first, 0.709 ± 0.066 for the second.

VRGGGSREERGC and VRGRREGVADER are within error of each other in protein stability index: 0.639 ± 0.061 for the first, 0.712 ± 0.084 for the second.

VRGSLFGICSAL and VRPPRLSSCLLS are within error of each other in protein stability index: 0.705 ± 0.06 for the first, 0.656 ± 0.024 for the second.

VRPRSSSQRPTP and VRQCSSGFRGAF are within error of each other in protein stability index: 0.689 ± 0.011 for the first, 0.674 ± 0.07 for the second.

VRRPSPSGGWLR and VRRWCQFLGCCG are within error of each other in protein stability index: 0.73 ± 0.051 for the first, 0.682 ± 0.0081 for the second.

VRSSELFNGVWC and VRVCRSVGAGMT are within error of each other in protein stability index: 0.736 ± 0.093 for the first, 0.649 ± 0.034 for the second.

Going from VRVCWGCCGVVF to VRWIEYDVKGWA, the protein stability index rises from 0.51 ± 0.024 to 0.71 ± 0.011.

Going from VSAPRPPPAPSP to VSCGRVGVARLG, the protein stability index falls from 0.786 ± 0.1 to 0.641 ± 0.016.

Going from VSCLFFFVSIPF to VSEVDVRGKGIR, the protein stability index rises from 0.5176 ± 0.0035 to 0.783 ± 0.068.

VSFRRFKFKVKM and VSGLDSLHPSSN are within error of each other in protein stability index: 0.661 ± 0.061 for the first, 0.717 ± 0.034 for the second.

VSGNLITLRCFT and VSKLTRHLWANQ are within error of each other in protein stability index: 0.59604 ± 0.00021 for the first, 0.61 ± 0.094 for the second.

Going from VSLGRRGDRGLC to VSMPIVPWPLLQ, the protein stability index falls from 0.719 ± 0.031 to 0.54 ± 0.016.

Going from VSNTSAWLLWIS to VSPLRGSRAPFP, the protein stability index rises from 0.629 ± 0.032 to 0.744 ± 0.068.

VSRDVMYLGLGG and VSRGGAVRLSTQ are within error of each other in protein stability index: 0.721 ± 0.18 for the first, 0.7027 ± 0.0027 for the second.

Compared with VSRGGWLKWDEG, VSRITSRFEKKM is lower in protein stability index: 0.66 ± 0.028 for the first, 0.592 ± 0.0086 for the second.

VSRRSGVGICHL and VSRVWAHFGFCG are within error of each other in protein stability index: 0.609 ± 0.13 for the first, 0.707 ± 0.02 for the second.

Going from VSSCSGVLLCVP to VSSPRLSPRLLY, the protein stability index rises from 0.544 ± 0.016 to 0.775 ± 0.084.

VSSSLPVHLSLS and VSSVGILPFRFN are within error of each other in protein stability index: 0.717 ± 0.037 for the first, 0.72 ± 0.077 for the second.

VSVIRIVPPEFI and VSVLVAFDTLPG are within error of each other in protein stability index: 0.672 ± 0.03 for the first, 0.711 ± 0.034 for the second.

Going from VSVVGDVWGYGG to VSYFARCLGSLA, the protein stability index falls from 0.753 ± 0.068 to 0.629 ± 0.0011.

VTCGVGQHAAIA and VTFRTFFVPTFK are within error of each other in protein stability index: 0.731 ± 0.053 for the first, 0.662 ± 0.097 for the second.

VTNGGGMGWYRR and VTPLPSLPHHRA are within error of each other in protein stability index: 0.652 ± 0.078 for the first, 0.604 ± 0.041 for the second.

VTPVQFMFRLHF and VTSSIQNRCTSC are within error of each other in protein stability index: 0.646 ± 0.054 for the first, 0.706 ± 0.076 for the second.

First: VVALTSVRSRDV
Second: VVALVLVGRHGG
The protein stability index of the first is higher: 0.6759 ± 0.0013 for the first, 0.597 ± 0.041 for the second.

VVARLERAGLGG and VVCGARGDGRCE are within error of each other in protein stability index: 0.766 ± 0.094 for the first, 0.6834 ± 0.0068 for the second.

In the case of VVCSTRRPSLGS, the protein stability index is reported as 0.681 ± 0.03.
